The assay deals with rRABV-G-XVIII (rabies virus glycoprotein ectodomain fused to the human collagen XVIII trimerization domain) (rabies virus strain CVS-11 | human). Put plainly: SEC. In general terms: Size exclusion chromatography separates by hydrodynamic size, large species first.

The stoichiometry N is the number of molecules, sites or subunits per partner or assembly. “rRABV-G-XVIII (rabies virus glycoprotein ectodomain fused to the human collagen XVIII trimerization domain)” registered a percent trimeric protein of 96.3% and a stoichiometry N of 3.

The values are drawn from PMC12474313.
